In the data set the test system is CN(CC(=O)O)C(=O)CN. As to the kind of experiment: concentration-dependent cellular uptake, HPLC-MS/MS, mock-corrected, Km. The class given is cell-based, Homo sapiens.

Take “hPHT1 (human peptide/histidine transporter 1, SLC15A4) (Homo sapiens; L14A/L15A/L318A/V319A)”: the Michaelis-Menten constant (Km) worked out at 1690 ± 300 µM, the maximal velocity (Vmax) worked out at 0.0001 µmol/min/mg and the Vmax/Km worked out at 0.0592 µL/min/mg.

The values are drawn from publication PMC5826766.
